Data on four molecules can be found in paper PMC3177148 (Molecular microbiology, 2011).

For data set [1], the target named is MacB (Escherichia coli, UniProt P75831). Kind of data set: limited proteolysis protection. Type of data set: binding. To be noted: 1 mM Mg-AMPPNP, loaded on ice, proteolysis at 37°C.
Data set [2] concerns the molecule itself. The experiment in a line: cross-linking.
In data set [3] the target is T1, MacB with C-terminal 6His tag, purified and reconstituted into proteoliposomes (E. coli, UniProt P75831 1-648).
T1 sequence: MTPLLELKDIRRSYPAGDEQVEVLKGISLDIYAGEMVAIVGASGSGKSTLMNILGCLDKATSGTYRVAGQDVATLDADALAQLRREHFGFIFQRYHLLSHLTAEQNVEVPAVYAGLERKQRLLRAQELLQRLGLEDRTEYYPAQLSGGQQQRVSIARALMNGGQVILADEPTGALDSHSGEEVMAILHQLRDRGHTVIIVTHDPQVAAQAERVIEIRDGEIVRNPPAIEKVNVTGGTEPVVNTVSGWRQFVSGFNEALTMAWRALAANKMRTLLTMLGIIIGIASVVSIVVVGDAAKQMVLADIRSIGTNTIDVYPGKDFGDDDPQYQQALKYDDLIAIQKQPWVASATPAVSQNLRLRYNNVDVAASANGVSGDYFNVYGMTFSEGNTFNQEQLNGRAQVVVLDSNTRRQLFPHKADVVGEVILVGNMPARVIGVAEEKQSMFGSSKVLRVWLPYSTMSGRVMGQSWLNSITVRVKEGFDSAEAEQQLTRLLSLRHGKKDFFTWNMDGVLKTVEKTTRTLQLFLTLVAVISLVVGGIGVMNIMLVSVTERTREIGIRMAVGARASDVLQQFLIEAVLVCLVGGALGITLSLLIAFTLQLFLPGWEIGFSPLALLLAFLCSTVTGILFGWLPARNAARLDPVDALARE
Kind of data set: limited proteolysis of proteoliposomes.

As for `Nc1ncnc2c1ncn2[C@@H]1O[C@H](COP(=O)(O)OP(=O)(O)NP(=O)(O)O)[C@@H](O)[C@H]1O` [AMPPNP], the “limited proteolysis protection (proteinase K) in proteoliposomes, anti-MacB immu” value in data set [1] is “MacB alone binds ATP and AMPPNP”.

B1: MacA wild type with C-terminal 6His tag, purified (natural protein)
chain: MKKRKTVKKRYVIALVIVIAGLITLWRILNAPVPTYQTLIVRPGDLQQSVLATGKLDALRKVDVGAQVSGQLKTLSVAIGDKVKKDQLLGVIDPEQAENQIKEVEATLMELRAQRQQAEAELKLARVTYSRQQRLAQTKAVSQQDLDTAATEMAVKQAQIGTIDAQIKRNQASLDTAKTNLDYTRIVAPMAGEVTQITTLQGQTVIAAQQAPNILTLADMSAMLVKAQVSEADVIHLKPGQKAWFTVLGDPLTRYEGQIKDVLPTPEKVNDAIFYYARFEVPNPNGLLRLDMTAQVHIQLTDVKNVLTIPLSALGDPVGDNRYKVKLLRNGETREREVTIGARNDTDVEIVKGLEAGDEVVIGEAKPGAAQ
Regarding B1, the binding result in data set [2] and in data set [3] was “binds” in each case.

B2: MacA G357A with C-terminal 6His tag, purified (natural protein)
chain: MKKRKTVKKRYVIALVIVIAGLITLWRILNAPVPTYQTLIVRPGDLQQSVLATGKLDALRKVDVGAQVSGQLKTLSVAIGDKVKKDQLLGVIDPEQAENQIKEVEATLMELRAQRQQAEAELKLARVTYSRQQRLAQTKAVSQQDLDTAATEMAVKQAQIGTIDAQIKRNQASLDTAKTNLDYTRIVAPMAGEVTQITTLQGQTVIAAQQAPNILTLADMSAMLVKAQVSEADVIHLKPGQKAWFTVLGDPLTRYEGQIKDVLPTPEKVNDAIFYYARFEVPNPNGLLRLDMTAQVHIQLTDVKNVLTIPLSALGDPVGDNRYKVKLLRNGETREREVTIGARNDTDVEIVKGLEAADEVVIGEAKPGAAQ
For the molecule B2, the binding result in data set [2] is given as “binds”.

B3: MacA G353A with C-terminal 6His tag, purified (natural protein)
chain: MKKRKTVKKRYVIALVIVIAGLITLWRILNAPVPTYQTLIVRPGDLQQSVLATGKLDALRKVDVGAQVSGQLKTLSVAIGDKVKKDQLLGVIDPEQAENQIKEVEATLMELRAQRQQAEAELKLARVTYSRQQRLAQTKAVSQQDLDTAATEMAVKQAQIGTIDAQIKRNQASLDTAKTNLDYTRIVAPMAGEVTQITTLQGQTVIAAQQAPNILTLADMSAMLVKAQVSEADVIHLKPGQKAWFTVLGDPLTRYEGQIKDVLPTPEKVNDAIFYYARFEVPNPNGLLRLDMTAQVHIQLTDVKNVLTIPLSALGDPVGDNRYKVKLLRNGETREREVTIGARNDTDVEIVKALEAGDEVVIGEAKPGAAQ
For the molecule B3, in data set [2], the binding result is recorded as “binds”.
